Results on 84 variants are retold here after the RNAGym collection of RNA variant scans (doi:10.1073/pnas.2313332121).

This sample holds only a part of the variants without activity.

Sequences and labels used below:
B1: TPR 5TU (parent)
chain: GGAUCUUCUCGAUCUAACAAAAAAGACAAAUCUGCCACAAAGCUUGAGAGCAUCUUCGGAUGCAGAGGCGGCAGCCUUCGGUGGCGCGAUAGCGCCAACGUUCUCAACUAUGACACGCAAAACGCGUGCUCCGUUGAAUGGAGUUUAUCAUG

This data set covers variants of B1. The data set is described as follows: polymerase ribozyme fitness, log enrichment relative to wild type (log ratio); higher = more active; in vitro selection for triplet polymerase activity. The essentials:
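The heterodimeric triplet polymerase ribozyme's subunits were each mutagenized into PCR-built libraries and transcribed. Every library was selected once, in triplicate, by annealing with a biotinylated primer, the partner subunit and triplets, incubating frozen at −7 °C, gel-excising extended constructs, capturing on streptavidin beads and running RT-PCR. Input and output libraries were Illumina-sequenced, with genotypes kept only at ≥10 input reads and ≥1 read per output. Fitness, from inverse-variance-weighted replicate averages, is the base-2 logarithm of genotype enrichment over wild-type enrichment.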
A3U U144G: the “polymerase ribozyme fitness (log ratio)” value worked out at 0.419.
The result for A47C A60C C72G U77G C87G G88U A110U A119G A147C reads at most -4.2; that for C8G G58A, -3.1.
The value for G81U G84C was -3.22; that for C38A U82G A91G A106C A138G was at most -4.2; that for A3U A30G A52U C79G G88U C95U A115G A120C G133U was -4.13.
The result for A28C A37G A47G A66C G86A A107U U135C reads at most -4.2; that for U9C A28G C57A C96G U151C, at most -4.2; that for U56A G94A, -1.28.
For the variant A30C A60C, the “polymerase ribozyme fitness (log ratio)” value is at most -4.2.
The result for A3G C18G G83C U144C reads -2.47; that for G42C A60G C79A C87U C105G C118A G124C, at most -4.2.
Regarding C93A U151A, the “polymerase ribozyme fitness (log ratio)” value was at most -4.2.
For A52C U56C G84U, the “polymerase ribozyme fitness (log ratio)” value was -4.01.
The value for U13G A23U C35A C93U C99U U127G was at most -4.2.
The value for C87A U145A was -4.17; that for U53A G84A G94A C103U C114U G126C was at most -4.2; that for G46C A98U was -1.22.
The result for C18U reads -0.399; that for C57U C87U C93A A107C, at most -4.2.
For the variant G59C C85A, the “polymerase ribozyme fitness (log ratio)” value was -0.943.
As for U4C C36G G50A C51A C75A G83A G112U C116A, the “polymerase ribozyme fitness (log ratio)” value is at most -4.2.
The result for A19G U53A A91G C95U U104A A121C G126C U135G reads at most -4.2; that for C5G A20C C32A G50C G124C G141C, at most -4.2; that for C8A A20C A22G G42C U53A C95U, at most -4.2.
The value for A19G A20U U55A C87A C131U U148A was at most -4.2.
In the case of A142U U144C, the “polymerase ribozyme fitness (log ratio)” value is -3.6.
The value for G59U G65C U109G was at most -4.2; that for A20G was -0.287.
The value for A20C G136C was -4.19; that for A16G G92U C93U C118U was -2.94.
The value for C32U C96G U130G was -3.47.
A17U G94C: the “polymerase ribozyme fitness (log ratio)” value was -1.63.
The value for A52C G84U C125U was -2.64; that for G50A C118G was -2.21.
The value for C35U C57G G65U U144C was -4.2; that for A3G C5G U7A G50U G86A C93U C96U was -0.354.
Consider C96U C118U, for which the “polymerase ribozyme fitness (log ratio)” value is -0.211.
The result for A21U U45C C85A reads -3.36; that for A26U C51A A60U G88U C95U C118U G141C, at most -4.2.
Regarding U53A C57A, the “polymerase ribozyme fitness (log ratio)” value was -0.577.
The result for A29C C35A U53A C57U G92A C118U A122G G136A C149U reads at most -4.2; that for A122C C125A, -0.874.
With G42C U56A C79A, the “polymerase ribozyme fitness (log ratio)” value was at most -4.2.
The value for A52U G84U was -2.48; that for U61A C87U A147C was -3.49; that for U82G C95G was -1.65.
The result for C63U C72U C105A reads -3.97; that for A49G G92A, -3.9.
The result for C18G C32U G46C U53A C85U reads at most -4.2; that for C76G C93A C96A G136C, at most -4.2; that for A3U A21G C76G G86U A121U, at most -4.2.
As to A47C G83A, the “polymerase ribozyme fitness (log ratio)” value was -2.37.
The value for A24U A66C A73G C79G C87A G88U C116A C118A was at most -4.2.
Regarding G48C C75U G81A G84U A97U G141U A150U, the “polymerase ribozyme fitness (log ratio)” value was at most -4.2.
The value for G71U C93U was -3.57.
The value for G70A C105A C123A was at most -4.2; that for C14U G46A U55G was -3.69.
The value for A17U A41C G83C A97U U127A A138U A150C was at most -4.2.
For C8U G11A G86A U109C C123A C132G, the “polymerase ribozyme fitness (log ratio)” value is at most -4.2.
The result for G50A A122U A137G reads -2.6.
As for G50A C99G, the “polymerase ribozyme fitness (log ratio)” value was -3.05.
Consider U15A C87U, for which the “polymerase ribozyme fitness (log ratio)” value was -0.632.
The value for G34C C93U A98U was -3.85; that for C14G U33C C87A A91C was at most -4.2.
The result for A52C U102A reads -1.68; that for A22U A28U U104G, at most -4.2; that for G83C U102G, -4.12.
For A20U A26C C32U A64C C75G U78G C123U U134C U145C, the “polymerase ribozyme fitness (log ratio)” value is at most -4.2.
The value for A19C A52C C85U C96U C108G G140C was at most -4.2; that for C8U was -2.39.
The value for A16G A91G C118U A150U was -3.08; that for U31G C95U G126C was 0.488.
The value for A30U G80A G81U C85U U104A C105G was at most -4.2; that for G50A U56A G62C C63A C96G was at most -4.2.
Turning to C18G C57A A147U, the “polymerase ribozyme fitness (log ratio)” value was found to be 0.567.
The result for C8A C76A G88U G94U C132G U139C reads at most -4.2.
The result for A21U U56A reads -0.173; that for C18U G140U, -3.29.
For A22U G50C C63U G71A G84A G117U A122U, the “polymerase ribozyme fitness (log ratio)” value is -4.
The result for A52C U55A C131G reads at most -4.2.
The result for C51U U55C A106G U151G reads at most -4.2; that for A12U A20C C36G A138C, -4.13.
The result for A28U C69A C75U U139G reads at most -4.2.
